According to patent US20050244862A1:

Key:
Experiment in all cases: cell-based or functional assay
NK3 tachykinin receptor = target: T1, NK3 tachykinin receptor (UniProt P29371)
T1 sequence (looked up): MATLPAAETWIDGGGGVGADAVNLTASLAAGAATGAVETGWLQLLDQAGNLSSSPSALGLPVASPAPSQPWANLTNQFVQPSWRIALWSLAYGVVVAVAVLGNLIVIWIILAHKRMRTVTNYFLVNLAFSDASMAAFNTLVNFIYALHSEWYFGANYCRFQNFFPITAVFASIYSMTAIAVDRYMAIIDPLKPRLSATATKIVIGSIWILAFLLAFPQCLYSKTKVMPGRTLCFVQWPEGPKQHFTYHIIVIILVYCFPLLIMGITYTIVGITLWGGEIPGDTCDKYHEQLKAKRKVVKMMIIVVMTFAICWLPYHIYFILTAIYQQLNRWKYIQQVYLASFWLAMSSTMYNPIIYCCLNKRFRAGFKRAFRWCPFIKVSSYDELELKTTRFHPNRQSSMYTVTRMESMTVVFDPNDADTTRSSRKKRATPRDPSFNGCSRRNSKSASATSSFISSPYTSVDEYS

NK2 tachykinin receptor = NK2 tachykinin receptor (UniProt P21452)
NK1 tachykinin receptor = NK1 tachykinin receptor (UniProt P25103)
trk C receptor subtype = target: trk C receptor subtype
[1] = target: human trk A receptor (human) (UniProt P04629)
ETA endothelin receptor = target: T2, ETA endothelin receptor
T2 sequence (P25101 whole entry, species assumed, looked up): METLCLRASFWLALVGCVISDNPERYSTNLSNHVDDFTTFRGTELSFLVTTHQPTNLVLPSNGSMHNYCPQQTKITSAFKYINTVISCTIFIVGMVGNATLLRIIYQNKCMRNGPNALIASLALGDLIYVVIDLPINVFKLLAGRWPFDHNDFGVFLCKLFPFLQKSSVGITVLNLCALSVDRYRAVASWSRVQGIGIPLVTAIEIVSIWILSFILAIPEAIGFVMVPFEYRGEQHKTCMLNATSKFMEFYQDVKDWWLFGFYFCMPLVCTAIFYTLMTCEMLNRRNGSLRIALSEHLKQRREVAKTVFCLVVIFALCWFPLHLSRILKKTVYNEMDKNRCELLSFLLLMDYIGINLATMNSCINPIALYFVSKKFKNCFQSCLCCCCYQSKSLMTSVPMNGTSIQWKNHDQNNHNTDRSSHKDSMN

ETB endothelin receptor = target: ETB endothelin receptor
ETB endothelin receptor, sequence (P24530 whole entry): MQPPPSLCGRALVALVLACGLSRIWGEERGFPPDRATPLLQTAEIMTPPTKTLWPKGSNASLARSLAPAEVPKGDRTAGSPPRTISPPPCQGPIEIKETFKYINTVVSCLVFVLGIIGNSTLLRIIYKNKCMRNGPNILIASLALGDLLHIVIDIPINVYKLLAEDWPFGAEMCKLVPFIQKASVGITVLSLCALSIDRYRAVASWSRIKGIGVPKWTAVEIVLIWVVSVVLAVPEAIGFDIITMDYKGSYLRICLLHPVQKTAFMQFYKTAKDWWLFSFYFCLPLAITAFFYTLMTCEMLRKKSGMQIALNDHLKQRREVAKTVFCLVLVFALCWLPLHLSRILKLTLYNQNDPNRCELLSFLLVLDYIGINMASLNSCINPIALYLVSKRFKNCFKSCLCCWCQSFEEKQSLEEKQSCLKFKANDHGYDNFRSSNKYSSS

NK2 tachykinin receptor, sequence (P21452 whole entry): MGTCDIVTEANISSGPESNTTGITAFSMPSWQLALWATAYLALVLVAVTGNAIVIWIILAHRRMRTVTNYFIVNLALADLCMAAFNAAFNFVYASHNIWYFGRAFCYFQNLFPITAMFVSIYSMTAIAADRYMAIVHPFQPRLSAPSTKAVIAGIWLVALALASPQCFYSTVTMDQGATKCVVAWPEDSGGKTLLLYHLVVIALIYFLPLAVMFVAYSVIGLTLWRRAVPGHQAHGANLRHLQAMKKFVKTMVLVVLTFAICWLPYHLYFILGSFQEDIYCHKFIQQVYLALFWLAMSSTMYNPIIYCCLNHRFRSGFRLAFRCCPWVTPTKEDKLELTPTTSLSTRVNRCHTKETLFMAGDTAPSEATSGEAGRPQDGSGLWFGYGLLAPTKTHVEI
human trk A receptor (human), sequence (P04629 33-796): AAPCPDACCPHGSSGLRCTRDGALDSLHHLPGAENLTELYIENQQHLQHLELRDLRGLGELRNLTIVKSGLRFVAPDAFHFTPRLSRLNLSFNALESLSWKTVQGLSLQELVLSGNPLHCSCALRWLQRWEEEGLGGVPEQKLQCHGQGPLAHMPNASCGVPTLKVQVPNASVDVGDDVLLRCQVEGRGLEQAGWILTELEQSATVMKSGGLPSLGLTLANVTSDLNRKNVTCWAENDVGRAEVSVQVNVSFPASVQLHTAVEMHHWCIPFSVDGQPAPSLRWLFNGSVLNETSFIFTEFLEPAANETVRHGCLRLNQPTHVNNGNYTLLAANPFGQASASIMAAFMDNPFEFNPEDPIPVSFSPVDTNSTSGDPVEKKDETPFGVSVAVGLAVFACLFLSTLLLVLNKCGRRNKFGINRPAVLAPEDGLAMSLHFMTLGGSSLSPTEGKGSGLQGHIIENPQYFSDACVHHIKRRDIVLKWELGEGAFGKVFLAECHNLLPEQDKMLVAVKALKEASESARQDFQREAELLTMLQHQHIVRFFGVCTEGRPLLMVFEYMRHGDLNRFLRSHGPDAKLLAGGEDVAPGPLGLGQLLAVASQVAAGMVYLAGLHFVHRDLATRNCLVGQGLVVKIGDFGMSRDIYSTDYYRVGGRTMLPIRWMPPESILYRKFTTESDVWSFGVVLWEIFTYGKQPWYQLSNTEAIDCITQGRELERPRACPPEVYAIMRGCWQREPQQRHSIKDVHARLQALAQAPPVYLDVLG
NK1 tachykinin receptor, sequence (P25103 whole entry): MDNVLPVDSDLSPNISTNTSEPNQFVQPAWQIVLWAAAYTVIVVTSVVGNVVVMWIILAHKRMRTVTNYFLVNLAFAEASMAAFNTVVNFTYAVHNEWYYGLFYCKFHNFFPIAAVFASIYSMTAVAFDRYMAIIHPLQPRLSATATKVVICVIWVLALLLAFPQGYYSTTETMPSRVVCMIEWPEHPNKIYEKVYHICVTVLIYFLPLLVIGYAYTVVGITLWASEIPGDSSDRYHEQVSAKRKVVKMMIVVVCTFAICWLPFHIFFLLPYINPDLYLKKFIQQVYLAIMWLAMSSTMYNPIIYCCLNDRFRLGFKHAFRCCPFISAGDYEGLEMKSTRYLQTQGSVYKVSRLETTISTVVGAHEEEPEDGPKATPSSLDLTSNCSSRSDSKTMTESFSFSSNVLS

B1: neurokinin B (peptide, UniProt Q9UHF0 81-90, looked up)
peptide: DMHDFFVGLM
With B1 the EC50, amplification assay (β-galactosidase), Single Receptor Format (NK3 tachykinin receptor) was 100 nM, the EC50, amplification assay (β-galactosidase), Single Receptor Format (NK2 tachykinin receptor) was 1.3 nM and the EC50, amplification assay (β-galactosidase), Single Receptor Format (NK1 tachykinin receptor) was 99 nM.

B2: neutrotrophic factor NT3 (ligand, UniProt P20783 139-257, looked up)
chain: YAEHKSHRGEYSVCDSESLWVTDKSSAIDIRGHQVTVLGEIKTGNSPVKQYFYETRCKEARPVKNGCRGIDDKHWNSQCKTSQTYVRALTSENNKLVGWRWIRIDTSCVCALSRKIGRT
With B2 the EC50, amplification assay (β-galactosidase), Single Receptor Format (trk C receptor subtype) was 2.4 ng/mL and the EC50, amplification assay (β-galactosidase), Single Receptor Format [1] was greater than 1000 ng/mL.

B3: ET-3 (peptide, UniProt P14138 97-117, looked up)
peptide: CTCFTYKDKECVYYCHLDIIW
B3 gave an EC50, amplification assay (β-galactosidase), Single Receptor Format (ETA endothelin receptor) of 2.1 nM and an EC50, amplification assay (β-galactosidase), Single Receptor Format (ETB endothelin receptor) of 0.14 nM.

B4: ET-2 (peptide, UniProt P20800 49-69, looked up)
peptide: CSCSSWLDKECVYFCHLDIIW
With B4 the EC50, amplification assay (β-galactosidase), Single Receptor Format (ETA endothelin receptor) was 16 nM.
